Laboratory results from paper PMC8503523, “Lilium regale Wilson WRKY2 Regulates Chitinase Gene Expression During the Response to the Root Rot Pathogen Fusarium oxysporum”.
Substitutions are numbered along the chain they refer to.

Experiments:
LrWRKY2 [1] = target: T1, LrWRKY2 (Lilium regale Wilson, UniProt A0A894THB0 1-343); test: EMSA; 0.5 ug protein in 20 uL with 7 uL binding buffer (as printed: 100 mM Tris, 500 mM KCl, 10 mM DTT, 50% glycerol, 100 mM MgCl2, 1% NP-40, 1 M KCl, 200 mM EDTA, 1); details: protein: recombinant, tags: His (pET-32a fusion)
T1 sequence: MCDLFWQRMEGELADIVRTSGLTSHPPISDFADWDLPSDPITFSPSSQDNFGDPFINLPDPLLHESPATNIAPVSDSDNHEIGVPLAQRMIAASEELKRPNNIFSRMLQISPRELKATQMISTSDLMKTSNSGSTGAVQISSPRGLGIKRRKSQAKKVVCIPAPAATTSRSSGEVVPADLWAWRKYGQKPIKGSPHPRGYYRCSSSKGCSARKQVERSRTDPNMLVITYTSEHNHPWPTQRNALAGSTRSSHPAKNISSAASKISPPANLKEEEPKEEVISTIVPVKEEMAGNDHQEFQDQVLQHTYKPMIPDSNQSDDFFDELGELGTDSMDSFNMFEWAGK

LrWRKY2 [2] = target: T1, LrWRKY2; test: competition EMSA; 50-fold excess over biotin-labeled N1; shift less intense; 0.5 ug protein in 20 uL with 7 uL binding buffer (as printed: 100 mM Tris, 500 mM KCl, 10 mM DTT, 50% glycerol, 100 mM MgCl2, 1% NP-40, 1 M KCl, 200 mM EDTA, 1); details: protein: recombinant; tags: His (pET-32a fusion); (only one strand printed; duplex implied by 50-bp)

B1: LrCHI2 promoter W-box probe (dsDNA)
DNA 1: GGCAAACTTTTAGGCCAAGAGATTGACTAGAACCCTCACAATCTCTATAT
DNA 2: ATATAGAGATTGTGAGGGTTCTAGTCAATCTCTTGGCCTAAAAGTTTGCC
binding result (LrWRKY2 [1]; (only one strand printed; duplex implied by 50-bp)): binds

B2: LrCHI2 promoter mutant W-box probe (dsDNA)
DNA 1: B1 DNA 1 with G25A, A26C
DNA 2: B1 DNA 2 with T25G, C26T
binding result (LrWRKY2 [1]): no binding

B3: LrCHI2 promoter W-box competitor, unlabeled (dsDNA)
DNA 1: B1 DNA 1
DNA 2: B1 DNA 2
binding result (LrWRKY2 [2]): binds
